According to the Immune Epitope Database (IEDB):

Columns and labels:
HLA-A*02:01 = assay: IEDB peptide-MHC binding, purified MHC/competitive/fluorescence; filed as Kd, often an IC50 or EC50 that approximates it; ≥ and ≤ were set here for values at or beyond the usual limits of such assays
HLA-A*02:03 = assay: as above
HLA-A*02:11 = assay: as above
HLA-A*02:12 = assay: as above
HLA-A*69:01 = assay: as above
HLA-A*01:01 = assay: IEDB peptide-MHC binding, purified MHC/competitive/fluorescence; ≥ and ≤ were set here for values at or beyond the usual limits of such assays; settings: source organism: Zaire ebolavirus
HLA-A*03:01 [1] = assay: as above; settings: source organism: Zaire ebolavirus
HLA-A*11:01 = assay: as above; settings: source organism: Zaire ebolavirus
HLA-A*24:02 = assay: as above; settings: source organism: Zaire ebolavirus
HLA-C*05:01 = assay: IEDB peptide-MHC binding, purified MHC/direct/fluorescence; filed as Kd, often an IC50 or EC50 that approximates it; ≥ and ≤ were set here for values at or beyond the usual limits of such assays; settings: source organism: Salmonella enterica subsp. enterica serovar Typhi str. CT18
HLA-A*02:16 = assay: IEDB peptide-MHC binding, purified MHC/competitive/fluorescence; filed as Kd, often an IC50 or EC50 that approximates it; ≥ and ≤ were set here for values at or beyond the usual limits of such assays
HLA-A*02:19 = assay: as above
HLA-A*03:01 [2] = assay: as above
HLA-A*23:01 = assay: as above
HLA-A*24:03 = assay: as above
HLA-A*26:01 = assay: as above
HLA-A*29:02 = assay: as above
HLA-B*15:01 = assay: as above
HLA-B*15:17 = assay: as above
HLA-B*18:01 = assay: as above
HLA-B*27:03 = assay: as above
HLA-B*39:01 = assay: as above
HLA-B*46:01 = assay: as above
HLA-B*51:01 = assay: as above
HLA-B*57:01 = assay: as above
HLA-A*68:02 = assay: as above; settings: source organism: Vibrio vulnificus CMCP6
HLA-B*15:42 = assay: as above; settings: source organism: Vibrio vulnificus CMCP6
HLA-B*45:06 = assay: as above; settings: source organism: Vibrio vulnificus CMCP6
HLA-B*83:01 = assay: as above; settings: source organism: Vibrio vulnificus CMCP6
HLA-A*02:06 = assay: as above; settings: source organism: Human immunodeficiency virus 1
HLA-A*26:02 = assay: as above; settings: source organism: Human immunodeficiency virus 1
[3] = source organism: Salmonella enterica subsp. enterica serovar Typhi
[4] = source organism: Vibrio vulnificus CMCP6
[5] = source organism: Human immunodeficiency virus 1

In the case of VVPYEPPEV, the Kd (HLA-A*02:01; source organism: Homo sapiens) is reported as 0.0265 µM, the Kd (HLA-A*02:03; source organism: Homo sapiens) is reported as 1.12 µM and the Kd (HLA-A*02:11; source organism: Homo sapiens) is reported as 0.0093 µM. It also gave a Kd (HLA-A*02:12; source organism: Homo sapiens) of 0.161 µM and a Kd (HLA-A*69:01; source organism: Homo sapiens) of no less than 20 µM.

With ATDVPSATK the IC50 (HLA-A*01:01) was 12 µM, the IC50 (HLA-A*03:01 [1]) was 28.7 µM and the IC50 (HLA-A*11:01) was 2.14 µM. For the same sequence, the IC50 (HLA-A*24:02) was 64.6 µM.

NTDEIPELI was tested, and the Kd (HLA-C*05:01) was 0.114 µM, the Kd (HLA-A*02:01; [3]) was no less than 20 µM and the Kd (HLA-A*02:03; [3]) was no less than 20 µM. The Kd (HLA-A*02:11; [3]) was 0.0031 µM, the Kd (HLA-A*02:12; [3]) was no less than 20 µM and the Kd (HLA-A*02:16; [3]) was no less than 20 µM. For the same sequence, the Kd (HLA-A*02:19; [3]) was no less than 20 µM, the Kd (HLA-A*03:01 [2]; [3]) was no less than 20 µM and the Kd (HLA-A*23:01; [3]) was no less than 20 µM. It also gave a Kd (HLA-A*24:03; [3]) of no less than 20 µM, a Kd (HLA-A*26:01; [3]) of no less than 20 µM and a Kd (HLA-A*29:02; [3]) of no less than 20 µM. The Kd (HLA-B*15:01; [3]) was no less than 20 µM, the Kd (HLA-B*15:17; [3]) was no less than 20 µM and the Kd (HLA-B*18:01; [3]) was no less than 20 µM. It also gave a Kd (HLA-B*27:03; [3]) of no less than 20 µM, a Kd (HLA-B*39:01; [3]) of no less than 20 µM and a Kd (HLA-B*46:01; [3]) of no less than 20 µM. It also gave a Kd (HLA-B*51:01; [3]) of no less than 20 µM and a Kd (HLA-B*57:01; [3]) of no less than 20 µM.

For LEMNDAPTA, the Kd (HLA-A*02:01; [4]) was no less than 20 µM, the Kd (HLA-A*02:03; [4]) was no less than 20 µM and the Kd (HLA-A*02:11; [4]) was no less than 20 µM. The Kd (HLA-A*02:12; [4]) was no less than 20 µM, the Kd (HLA-A*02:16; [4]) was no less than 20 µM and the Kd (HLA-A*02:19; [4]) was no less than 20 µM. For the same sequence, the Kd (HLA-A*03:01 [2]; [4]) was no less than 20 µM, the Kd (HLA-A*23:01; [4]) was no less than 20 µM and the Kd (HLA-A*24:03; [4]) was no less than 20 µM. It also gave a Kd (HLA-A*26:01; [4]) of no less than 20 µM, a Kd (HLA-A*29:02; [4]) of no less than 20 µM and a Kd (HLA-A*68:02) of no less than 20 µM. For the same sequence, the Kd (HLA-A*69:01; [4]) was no less than 20 µM, the Kd (HLA-B*15:01; [4]) was no less than 20 µM and the Kd (HLA-B*15:17; [4]) was no less than 20 µM. The Kd (HLA-B*15:42) was no less than 5 µM, the Kd (HLA-B*18:01; [4]) was 0.24 µM and the Kd (HLA-B*27:03; [4]) was no less than 20 µM. It also gave a Kd (HLA-B*39:01; [4]) of no less than 20 µM, a Kd (HLA-B*45:06) of no less than 5 µM and a Kd (HLA-B*46:01; [4]) of no less than 20 µM. It also gave a Kd (HLA-B*51:01; [4]) of no less than 20 µM, a Kd (HLA-B*57:01; [4]) of no less than 20 µM and a Kd (HLA-B*83:01) of no less than 5 µM.

LFNTIATLY showed a Kd (HLA-A*02:01; [5]) of 1.07 µM, a Kd (HLA-A*02:03; [5]) of no less than 20 µM and a Kd (HLA-A*02:06) of 1.29 µM. It also gave a Kd (HLA-A*26:02) of no less than 20 µM and a Kd (HLA-B*15:17; [5]) of 2.51 µM.
